We go through 15 molecules from patent publication US20240059769A1 (BIOLOJIC DESIGN, published 2024).

What is called Kd is the concentration at which binding is half-saturated. In general, koff refers to the rate constant with which the complex falls apart. By kon is commonly meant a measure of how fast the partners come together. Broadly, the IC50 is the concentration needed to halve the response being measured.

Positions count from the first letter of the chain named. Read-outs that look alike come from different tables or passages of the source.

One assay concerns the target hIL-13-His (human, UniProt P35225 35-146, limits assumed). Nature of the assay: cell-based or functional assay.
For assay [1], the target named is T1, recombinant human IL-13 (rh-IL-13)-Fc (human, UniProt P35225 35-146, limits assumed).
T1 construct: bought; not shown: human Fc
T1 sequence (P35225 35-146 limits assumed): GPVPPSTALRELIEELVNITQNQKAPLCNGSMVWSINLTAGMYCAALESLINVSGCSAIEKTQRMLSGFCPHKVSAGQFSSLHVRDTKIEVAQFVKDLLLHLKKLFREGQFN
Briefly: yeast surface display scFv, flow cytometry, 10 nM rh-IL-13-Fc.

For assay [2], the target named is T2, recombinant human TSLP (hTSLP)-Fc (human, UniProt Q969D9 29-159, limits assumed).
T2 construct: not shown: Fc
Nature of the assay: yeast surface display, flow cytometry, 10 nM hTSLP-Fc; MFI normalized to expression and to the positive control. On the technique in general: Flow cytometry measures light scatter and fluorescence of single cells or particles in a stream.

Assay [3] has as its target T3, human TSLP (human, UniProt Q969D9 29-159).
T3 construct: also called hTSLP; rhTSLP
Briefly: SPR.

For assay [4], the target named is T4, recombinant human IL-13 (human, UniProt P35225 35-146). Nature of the assay: cell-based or functional assay.
T4 sequence (P35225 35-146 limits assumed): as above
Assay [5] has as its target T3, human TSLP. Briefly: cell-based or functional assay.
Assay [6] addresses T5, hTSLP-His (human, UniProt Q969D9 29-159, limits assumed).
T5 construct: bought; also called hTSLP (ACROBiosystems TSP-H52Hb); not shown: His tag
Briefly: competition ELISA: antibody titrated and pre-incubated with 7 nM TSLP-His, then on a plate coated with 33.001 (Tezepelumab), anti-His detection; row head on the sheet reads EC50, unit from the axis.

The target in assay [7] is T4, recombinant human IL-13. Briefly: cell-based or functional assay. This is another data set of the same source.
Assay [8] has as its target T6, cynomolgus monkey (cyno) TSLP (cynomolgus monkey, UniProt A0A7N9CAT7 29-159).
T6 construct: also called cTSLP; cynomolgus TSLP
Nature of the assay: SPR. Background: SPR reads the build-up and loss of mass on a sensor chip optically.

Assay [9] has as its target T7, recombinant cynomolgus monkey IL-13 (cynomolgus monkey, UniProt Q0PW92 21-132).
T7 construct: bought; also called rc-IL-13; cIL-13
Nature of the assay: SPR.

Assay [10] concerns the target T5, hTSLP-His. Nature of the assay: cell-based or functional assay.
Assay [11] addresses T4, recombinant human IL-13. Nature of the assay: SPR.
Assay [12] addresses T5, hTSLP-His. Nature of the assay: competition ELISA, 7 nM TSLP-His pre-incubated with antibody; competitor Tezepelumab coated. (An ELISA detects its analyte on a solid surface through an enzyme-linked reagent.)
Assay [13] has as its target T4, recombinant human IL-13. Nature of the assay: SPR. This is another data set of the same source.
Assay [14] has as its target T3, human TSLP. Nature of the assay: SPR. This is another data set of the same source.
The target of assay [15] is T3, human TSLP. Nature of the assay: yeast surface display, affinity maturation library.

T6 sequence (A0A7N9CAT7 entry or part of it): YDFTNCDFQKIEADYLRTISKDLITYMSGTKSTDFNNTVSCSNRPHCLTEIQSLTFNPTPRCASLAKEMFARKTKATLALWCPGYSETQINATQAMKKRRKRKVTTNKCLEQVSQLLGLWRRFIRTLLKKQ
T7 sequence (Q0PW92 entry or part of it): as the sequence (P35225 35-146 limits assumed) above, with G1S, R10K, M42V, S67N, H83R, L100V counted along it
Sequence of hIL-13-His (P35225 35-146 limits assumed): as the sequence (P35225 35-146 limits assumed) above

B1: Lebrikizumab (antibody, V domains shown)
VH: QVTLRESGPALVKPTQTLTLTCTVSGFSLSAYSVNWIRQPPGKALEWLAMIWGDGKIVYNSALKSRLTISKDTSKNQVVLTMTNMDPVDTATYYCAGDGYYPYAMDNWGQGSLVTVSS
VL: DIVMTQSPDSLSVSLGERATINCRASKSVDSYGNSFMHWYQQKPGQPPKLLIYLASNLESGVPDRFSGSGSGTDFTLTISSLQAEDVAVYYCQQNNEDPRTFGGGTKVEIKR
Turning to B1, the “IC50, CD23 expression on monocytes (hPBMC, 0.7 nM IL-13)” value with hIL-13-His is 0.38 nM.

B2: Tralokinumab (antibody, V domains shown)
VH: QVQLVQSGAEVKKPGASVKVSCKASGYTFTNYGLSWVRQAPGQGLEWMGWISANNGDTNYGQEFQGRVTMTTDTSTSTAYMELRSLRSDDTAVYYCARDSSSSWARWFFDLWGRGTLVTVSS
VL: SYVLTQPPSVSVAPGKTARITCGGNIIGSKLVHWYQQKPGQAPVLVIYDDGDRPSGIPERFSGSNSGNTATLTISRVEAGDEADYYCQVWDTGSDPVVFGGGTKLTVL
For the molecule B2, in the assay with hIL-13-His, the “IC50, CD23 expression on monocytes (hPBMC, 0.7 nM IL-13)” value amounted to 0.91 nM.

B3: Clone C9 (yeast-displayed scFv) (scFv)
scFv: QMQLVESGGGVVQPGRSLRLSCAASGFTFRTYGMHWVRQAPGKGLEWVAVIWYDGSNKHYADSVKGRFTITRDNSKNTLNLQMNSLRAEDTAVYYCARSPQWEWVHEAFDLWGQGTMVTVSSGGGGSGGGGSGGGGSSYVLTQPPSVSVAPGQTARITCGGNLIGSKLVHWYQQKPGQAPVLVVYDDGDRPSWIPERFSGSNSGNTATLTISRVEAGDEADYYCQVWDSSSDGVVFGGGTKLTVL
B3: in assay [1], the “relative affinity (normalized MFI, % of positive control)” value was greater than 20%. In addition, the binding result in assay [2] was “binds”.

B4: Clone C6 (yeast-displayed scFv) (scFv)
scFv: B3 scFv with S99A, E103M, W104L, H106A, G188S, W193R, G233H
For B4, the “relative affinity (normalized MFI, % of positive control)” value in assay [1] was greater than 20%. In addition, the binding result in assay [2] is listed as “binds”.

B5: Clone C2 (yeast-displayed scFv) (scFv)
scFv: B3 scFv with S99A, W104L, V105T, H106A, L111I, G188S, W193L
Consider B5, for which, in assay [1], the “relative affinity (normalized MFI, % of positive control)” value was greater than 20%. In assay [2], the binding result was “binds”.

B6: Clone C40 (yeast-displayed scFv) (scFv)
scFv: B3 scFv with L163N, G188S, W193R, S229T
Consider B6, for which the “relative affinity (normalized MFI, % of positive control)” value in assay [1] was greater than 20%. Further, in assay [2], the binding result is “binds”.

B7: BDG38.075 (antibody, V domains shown)
VH: QMQLVESGGGVVQPGRSLRLSCAASGFAFRTYGMHWVRQAPGKGLEWVAVIWYDGSATHYADSVKGRFTITRDNSKNTLNLQMNSLRAEDTAVYYCVRAPQWYLSAEAFDLWGQGTMVTVSS
VL: SYVLTQPPSVSVAPGETATITCGGNLIGAYLVHWYQQKPGQAPVLVIYDDVDRPARIPERFSGSNSGNTATLTISRVEAGDEADYYCQVWDHDTNTMVFGGGTKLTVL
notes: IgG1
Consider B7, for which the equilibrium dissociation constant (Kd) with human TSLP [3] stood at 0.012 nM; in assay [8], 0.00279 nM; in assay [9] it was 0.454 nM; with recombinant human IL-13 [11], 0.0318 nM. Moreover, the off-rate constant (koff) in the assay with human TSLP [3] worked out at 2.38e-05 s⁻¹; in [8] it was 7.59e-06 s⁻¹; in [9], 0.0156 s⁻¹; in the assay with recombinant human IL-13 [11], 0.000547 s⁻¹. The association rate constant (kon) was determined as 1.98e+06 M⁻¹ s⁻¹ with human TSLP [3], 2.72e+06 M⁻¹ s⁻¹ in [8], 3.45e+07 M⁻¹ s⁻¹ in assay [9] and 1.72e+07 M⁻¹ s⁻¹ with recombinant human IL-13 [11]. In addition, the “IC50 CD23” value with recombinant human IL-13 [4] turned out to be 0.0975 nM. Besides, the “IC50 TARC” value with human TSLP [5] stood at 4.17 nM. The half-maximal inhibitory concentration (IC50) was 3.39 nM in the assay with hTSLP-His [6] and 3.94 nM with hTSLP-His [12]. Also, the “HEK-IL-13 [nM] (IC50, STAT6 reporter)” value with recombinant human IL-13 [7] was 0.0691 nM. Besides, the “IC50 [pM], STAT5 phosphorylation inhibition in MUTZ5 cells” value with hTSLP-His [10] turned out to be 43.9 pM.

B8: BDG38.132 (antibody, V domains shown)
VH: B7 VH with A28E, A49G, Y53D, A57N, S105T
VL: B7 VL with V3I, Y30R, V51S, A55S, S66I, H92Y, D93S, T94S, N95D, T96H
notes: IgG1
On to B8, for which the Kd is 0.0178 nM with recombinant human IL-13 [13], 0.00341 nM in the assay with human TSLP [14], 0.000321 nM in assay [8] and 0.0563 nM in [9]. Also, the koff was 0.000184 s⁻¹ in the assay with recombinant human IL-13 [13], 3.55e-05 s⁻¹ with human TSLP [14], 2.19e-06 s⁻¹ in [8] and 0.00201 s⁻¹ in assay [9]. In addition, the kon with recombinant human IL-13 [13] was determined as 1.03e+07 M⁻¹ s⁻¹; with human TSLP [14], 1.04e+07 M⁻¹ s⁻¹; in assay [8] it was 6.83e+06 M⁻¹ s⁻¹; in assay [9], 3.58e+07 M⁻¹ s⁻¹. The “IC50 CD23” value with recombinant human IL-13 [4] came to 0.43 nM. The “IC50 TARC” value with human TSLP [5] was 22.4 nM. Moreover, in the assay with recombinant human IL-13 [7], the “HEK-IL-13 [nM] (IC50, STAT6 reporter)” value came out at 0.0899 nM. In the assay with hTSLP-His [10], the “IC50 [pM], STAT5 phosphorylation inhibition in MUTZ5 cells” value is 0.386 pM. This molecule also had an IC50 with hTSLP-His [12] of 9.2 nM.

B9: Ab clone 38.021 (yeast surface display) (scFv, V domains shown)
VH: B7 VH with R30D, A57N, H59V, V97A
VL: B2 VL with K16Q, I26L, I47V, G51S, G56R, T92H, G93S, P96H, V97Y
notes: YSD clone; also called BDG38_021
On to B9, for which the binding result in the assay with human TSLP [15] is recorded as “binds”.

B10: Ab clone 38.018 (yeast surface display) (scFv, V domains shown)
VH: B7 VH with Y53D, A57N, V97A
VL: B2 VL with K16Q, I26L, I47V, G51S, G56R, T92H, G93S, P96H
notes: YSD clone; also called BDG38_018
For B10, the binding result in the assay with human TSLP [15] is given as “binds”.

B11: Ab clone 38.019 (yeast surface display) (scFv, V domains shown)
VH: B7 VH with A57N
VL: B2 VL with K16Q, I26L, I47V, G51S, G56R, T92Y, G93S, D95N, P96H
notes: YSD clone; also called BDG38_019
As to B11, in the assay with human TSLP [15], the binding result is given as “binds”.

B12: Ab clone 38.040 (yeast surface display) (scFv, V domains shown)
VH: B7 VH with A28D, A57I, S105T
VL: B2 VL with K16Q, I26L, S29T, I47V, G51S, G56R, T92H, G93N, S94E, P96E
notes: YSD clone; also called BDG38_040
As for B12, in the assay with human TSLP [15], the binding result is “binds”.

B13: BDG38.077 (antibody, V domains shown)
VH: B7 VH with R19T, A49G, S105T
VL: B7 VL with N25A, A29S, Y30R, V51S, A55S, S66I, R76D, D93S, T94S, M97Y
notes: IgG1
Consider B13, for which the equilibrium dissociation constant (Kd) with human TSLP [3] worked out at 0.166 nM; with recombinant human IL-13 [11] it was 0.0325 nM. The off-rate constant (koff) with human TSLP [3] was determined as 0.000144 s⁻¹; in the assay with recombinant human IL-13 [11] it was 0.000539 s⁻¹. Also, the kon in the assay with human TSLP [3] was found to be 869000 M⁻¹ s⁻¹; with recombinant human IL-13 [11], 1.66e+07 M⁻¹ s⁻¹. For the same molecule, the “IC50 CD23” value with recombinant human IL-13 [4] stood at 0.0124 nM. Moreover, the “IC50 TARC” value with human TSLP [5] was found to be 2.47 nM. Further, the IC50 with hTSLP-His [6] was 8.48 nM; with hTSLP-His [12], 8.47 nM. The “HEK-IL-13 [nM] (IC50, STAT6 reporter)” value in the assay with recombinant human IL-13 [7] came to 0.0505 nM. In the assay with hTSLP-His [10], the “IC50 [pM], STAT5 phosphorylation inhibition in MUTZ5 cells” value is 304 pM.

B14: Ab clone 38.014 (yeast surface display) (scFv, V domains shown)
VH: B7 VH with A57N
VL: B2 VL with K16Q, I26L, S29A, I47V, G51S, G56R, T92H, G93S, P96H
notes: YSD clone; also called BDG38_014
For B14, the binding result with human TSLP [15] is “binds”.

B15: Ab clone 38.026 (yeast surface display) (scFv, V domains shown)
VH: B7 VH
VL: B2 VL with K16Q, R19T, I26L, I47V, G51S, G56R, S66I, T92H, G93S, P96H
notes: YSD clone; also called BDG38_026
Turning to B15, the binding result with human TSLP [15] is “binds”.
